Reference: publication doi:10.1101/2021.07.08.451649 (bioRxiv, 2021)

Target: SARS-CoV-2 HexaPro spike glycoprotein (SARS-CoV-2, ancestral (Wuhan-Hu-1), …, stabilised)
Test: cryo-EM structure

B1: PVI.V6-14 Fab (Fab, V domains shown)
VH: QVQLQESGPGLVKPSETLSLTCTVSGGSISSSSYYWGWIRQPPGKGLEWIGSIYYSGSTYYNPSLKSRVTISVDTSKNQFSLKLSSVTAADTAVYYCARCRPEYYFGSGSYLDFDY
VL: DIQMTQSPSSVSASVGDRVTITCRASQGISSWLAWYQQKPGKAPKLLIYAASSLQSGVPSRFSGSGSGTDFTLTISSLQPEDFATYYCQQANSFPLTFGGGTKVEIK
Which “stoichiometry N” value does the source give for B1 here?
Its value is 2 Fabs per spike trimer.
